± gives the standard deviation.
Experiment: collision cross section of modified peptide (TIMS, N2, iRT-aligned); higher = larger / more extended gas-phase ion
How it was run: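 On a timsTOF Pro/HT (dda-PASEF, nitrogen, ~2.4 mbar), synthetic peptide pools were analysed after a 120-min nanoflow C18 separation at 60 °C and identified in MaxQuant. Three reference ions served for 1/K0 calibration, with run-wise alignment to the median iRT peptide deviation. Collision cross section comes from the Mason-Schamp equation, using the most abundant feature per charge state averaged over 1–3 technical replicates.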

[1] = charge state: 3, modification: Methyl (R)
[2] = charge state: 2, modification: Trimethyl (K)
[3] = charge state: 3, modification: Trimethyl (K)
[4] = charge state: 2, modification: Citrullination (R)
[5] = charge state: 3, modification: Citrullination (R)
[6] = charge state: 2, modification: Malonyl
[7] = charge state: 2, modification: Glutarylation
[8] = charge state: 3, modification: Glutarylation
[9] = charge state: 2, modification: GlyGly (K)
[10] = charge state: 3, modification: GlyGly (K)
[11] = charge state: 2, modification: Phospho (Y)
[12] = charge state: 2, modification: Dimethyl (K)
[13] = charge state: 3, modification: Dimethyl (K)
[14] = charge state: 2, modification: Butyryl
[15] = charge state: 3, modification: Butyryl
[16] = charge state: 2, modification: Formyl
[17] = charge state: 2, modification: Methyl (K)
[18] = charge state: 3, modification: Methyl (K)
[19] = charge state: 2, modification: Crotonyl
[20] = charge state: 3, modification: Crotonyl
[21] = charge state: 2, modification: Hydroxyproline

“PANEKATDDYHYEK [_PANEK(Malonyl)ATDDYHYEK_]” gave a collision cross section (charge state: 3, modification: Malonyl) of 498.89 ± 1.6 Å².

For “GRGTGEAEEEYVGPR [_GR(Methyl (R))GTGEAEEEYVGPR_]”, the collision cross section [1] was 491.55 ± 1.6 Å².

“LEKTIDDLEEK [_LEK(Trimethyl (K))TIDDLEEK_]” showed a collision cross section [2] of 402.76 ± 0.62 Å² and a collision cross section [3] of 468.63 ± 1.5 Å².

In the case of “GVPRGVHLGSQGLQR [_GVPR(Citrullination (R))GVHLGSQGLQR_]”, the collision cross section [4] is reported as 439.96 Å² and the collision cross section [5] is reported as 482.18 ± 0.41 Å².

Work on ASAISIKLGSSK [_ASAISIK(Malonyl)LGSSK_] yielded a collision cross section [6] of 370.34 ± 0.77 Å².

For GEVQVSDKER [_GEVQVSDK(Malonyl)ER_], the collision cross section [6] was 362.93 ± 1.2 Å².

For “DTPTSAGPNSFNKGK [_DTPTSAGPNSFNK(Gluratylation)GK_]”, the collision cross section [7] was 415.83 ± 1.8 Å² and the collision cross section [8] was 444.87 ± 1.9 Å².

TATLATLATR [_TATLATLAT(HexNAc (ST))R_] gave a collision cross section (charge state: 2, modification: HexNAc (ST)) of 364.8 ± 0.64 Å².

“LGVATVAKGVCGACK [_LGVATVAK(GlyGly (K))GVCGACK_]” showed a collision cross section [9] of 453.34 ± 1.4 Å² and a collision cross section [10] of 497.41 ± 0.34 Å².

For “YEQEHAAIQDKLFQVAK [_YEQEHAAIQDK(GlyGly (K))LFQVAK_]”, the collision cross section [10] was 562.29 ± 1.2 Å².

For SEASSEFAKK [_SEASSEFAK(GlyGly (K))K_], the collision cross section [9] was 362.55 ± 0.39 Å² and the collision cross section [10] was 429.79 ± 1.1 Å².

In the case of “GRGTSQLAEGATAK [_GR(Methyl (R))GTSQLAEGATAK_]”, the collision cross section (charge state: 2, modification: Methyl (R)) is reported as 391.78 ± 1.4 Å² and the collision cross section [1] is reported as 464.6 ± 2.7 Å².

“PRLPATGTFK [_PR(Citrullination (R))LPATGTFK_]” gave a collision cross section [4] of 351.67 ± 5.4 Å².

Substance FYTEDSPGLK [_FY(Phospho (Y))TEDSPGLK_] has a collision cross section [11] of 366.92 ± 0.064 Å².

“SGKFTQQDIDEAK [_SGK(Dimethyl (K))FTQQDIDEAK_]” showed a collision cross section [12] of 408.63 Å² and a collision cross section [13] of 466.84 ± 1.6 Å².

“SSGPGGQNVNKVNSK [_SSGPGGQNVNK(Butyryl)VNSK_]” showed a collision cross section [14] of 405.84 ± 0.57 Å² and a collision cross section [15] of 443.95 ± 2 Å².

With “ITGKNQVTATK [_ITGK(Trimethyl (K))NQVTATK_]” the collision cross section [2] was 375.05 ± 1.7 Å² and the collision cross section [3] was 426.22 Å².

Substance SDDESSQKDIK [_SDDESSQK(Formyl)DIK_] has a collision cross section [16] of 368.14 ± 1.1 Å².

“GSLEKGSPEDK [_GSLEK(Gluratylation)GSPEDK_]” showed a collision cross section [7] of 373.46 ± 0.99 Å².

“STGLELETPSLVPVKK [_STGLELETPSLVPVK(Methyl (K))K_]” gave a collision cross section [17] of 452.34 ± 2.6 Å² and a collision cross section [18] of 516.69 ± 3.1 Å².

With “KFGVLSDNFK [_K(hydroxyisobutyryl)FGVLSDNFK_]” the collision cross section (charge state: 2, modification: hydroxyisobutyryl) was 378.39 ± 0.91 Å².

Work on “VYVGNLGTGAGK [_VY(Nitro (Y))VGNLGTGAGK_]” yielded a collision cross section (charge state: 2, modification: Nitro (Y)) of 354.85 ± 1.5 Å².

With “FGDSRGGGGNFGPGPGSNFR [_FGDSR(Citrullination (R))GGGGNFGPGPGSNFR_]” the collision cross section [5] was 490.23 ± 0.77 Å².

In the case of “VGEFSGANKEK [_VGEFSGANK(Dimethyl (K))EK_]”, the collision cross section [12] is reported as 376.33 ± 1.2 Å² and the collision cross section [13] is reported as 440.62 ± 2.8 Å².

For ASEALLKQLK [_ASEALLK(Formyl)QLK_], the collision cross section [16] was 369.4 ± 0.89 Å².

In the case of “SITHSTVGSKGEK [_SITHSTVGSK(Crotonyl)GEK_]”, the collision cross section [19] is reported as 402.71 ± 8.6 Å² and the collision cross section [20] is reported as 442.34 ± 1.6 Å².

Work on “LGVPGLPGYPGR [_LGVPGLPGYP(Hydroxyproline)GR_]” yielded a collision cross section [21] of 362.53 ± 0.8 Å².

In the case of LTEKELAEAASK [_LTEK(Butyryl)ELAEAASK_], the collision cross section [14] is reported as 394.05 ± 1.5 Å² and the collision cross section [15] is reported as 455.88 Å².

Work on PDTQYTGR [_PDTQY(Phospho (Y))TGR_] yielded a collision cross section [11] of 335.56 ± 0.067 Å².

“SLEEEGAAHSGKR [_SLEEEGAAHSGK(Gluratylation)R_]” gave a collision cross section [7] of 420.5 ± 2 Å² and a collision cross section [8] of 475.56 ± 1.7 Å².

LLFSNTAAQKLR [_LLFSNTAAQK(Crotonyl)LR_] showed a collision cross section [19] of 404.43 ± 0.55 Å² and a collision cross section [20] of 483.58 ± 1.6 Å².

For “AGQKLIDVNHYAK [_AGQK(Propionyl)LIDVNHYAK_]”, the collision cross section (charge state: 2, modification: Propionyl) was 432.1 ± 1.1 Å² and the collision cross section (charge state: 3, modification: Propionyl) was 484.45 Å².

Substance LEKTIDDLEEK [_LEK(Methyl (K))TIDDLEEK_] has a collision cross section [17] of 405.66 ± 1.3 Å² and a collision cross section [18] of 473.34 ± 3.6 Å².

For PGPRGQR [_P(Hydroxyproline)GPRGQR_], the collision cross section [21] was 294.67 Å².

For “FVDSKVGEFSGANK [_FVDSK(Gluratylation)VGEFSGANK_]”, the collision cross section [7] was 419.09 Å².
